{
  "source": "paper PMC4857094",
  "data": [
    {"molecular_target": "circularly permutated RBD of PKN1 (PKN1-WT) in the RhoA/B/C FRET sensors", "experiment": "FRET or BRET; intramolecular single-chain sensor (PKN1 RBD, mVenus, Cerulean3, RhoGTPase); normalized mean YFP/CFP ratio change of whole live HUVEC after Thrombin (1 U/ml) at t = 110 sec", "units": {"mean maximal FRET ratio change after Thrombin": "%"}, "values": [
      {"substance": "RhoA-WT in the RhoA FRET sensor (from UniProt P61586 1-193) (natural protein)", "mean maximal FRET ratio change after Thrombin": 32},
      {"substance": "RhoB-WT in the RhoB FRET sensor (from UniProt P62745 1-196) (natural protein)", "mean maximal FRET ratio change after Thrombin": 122},
      {"substance": "RhoC-WT in the RhoC FRET sensor (from UniProt P08134 1-193) (natural protein)", "mean maximal FRET ratio change after Thrombin": 42}
    ]},
    {"molecular_target": "circularly permutated RBD of PKN1 (PKN1-WT) in the RhoA/B/C FRET sensors", "experiment": "FRET or BRET; intramolecular single-chain sensor (PKN1 RBD, mVenus, Cerulean3, RhoGTPase); average basal YFP/CFP ratio in resting live primary human EC (HUVEC), 18 hours after microporation", "values": [
      {"substance": "RhoA-Q63L in the RhoA FRET sensor (from UniProt P61586 1-193) (natural protein)", "basal YFP/CFP ratio": 8.1},
      {"substance": "RhoB-G14V in the RhoB FRET sensor (from UniProt P62745 1-196) (natural protein)", "basal YFP/CFP ratio": 6.5},
      {"substance": "RhoC-G14V in the RhoC FRET sensor (from UniProt P08134 1-193) (natural protein)", "basal YFP/CFP ratio": 6.2},
      {"substance": "RhoC-Q63L in the RhoC FRET sensor (from UniProt P08134 1-193) (natural protein)", "basal YFP/CFP ratio": 6.8}
    ]}
  ]
}
